Laboratory results: patent US20210085781A1 (KORANEX CAPITAL, published 2021)

Biological target: T1, recombinant SARS-CoV-2 S1 protein expressed from insect (Sf9) cells (S1-His, SinoBiological, Cat. No. … (SARS-CoV-2, UniProt P0DTC2 16-685))
T1 construct: also called S1 protein from insect (Sf9) cells
Test: ELISA, coated S1 from Sf9 cells, HRP-conjugated lectin 10 ug/mL

B1: Maclura pomifera lectin (MPA; Cat. No: H-3901-1) (other)
chain 1: GVTFDDGAYTGIREINFEYNSETAIGGLRVTYDLNGMPFVAEDHKSFITGFKPVKISLEFPSEYIVEVSGYVGKVEGYTVIRSLTFKTNKQTYGPYGVTNGTPFSLPIENGLIVGFKGSIGYWLDYFSIYLSL
chain 2: GRNGKSQSIIVGPWGDRVTN
mean fold increase of OD450: 7.51 fold
